Results as given in patent US20150197568A1 (AstraZeneca / MedImmune, published 2015).
Residue numbers refer to the chain shown, from its start.

B1: Antibody 2 IgG (antibody, V domains shown)
VH: EVQLVQSGGGLIQPGGSLRLSCAASGFTISSNYMTWVRQAPGKGLEWVSDLYYYAGDTYYADSVRGRFTMSRDISKNTVYLQMDSLRAEDTGVYYCARWADGHYYYIDVWGGGTLVTVSS
VL: DIVMTQSPSTLSASVGDRVTITCRASQGISSWLTWYQQKPGRAPKVLIYKASTLESGVPSRFSGSGSGTDFTLTISSLQPEDFATYYCQQSYSAPWTFGQGTKLELKR
notes: Non-germlined; also called Ab 2
B2: Antibody 3 IgG (antibody, V domains shown)
VH: B1 VH with E1Q, T35V, R65K, M70V, D84N, G102D, Y106H, G112R
VL: B1 VL with T34A, V46A, A94T, L106I
notes: Non-germlined; IgG1 with human heavy chain and kappa constant domains; also called Ab 3
B3: Antibody 10 (GL) IgG (antibody, V domains shown)
VH: EVQLVESGGGLVQPGGSLRLSCAASGFTISSNYMIWVRQAPGKGLEWVSDLYYYAGDTYYADSVKGRFTMSRDISKNTVYLQMNSLRAEDTAVYYCARWEEEGRGYIDVWGRGTLVTVSS
VL: DIQMTQSPSTLSASVGDRVTITCRASQGISSWLAWYQQKPGKAPKVLIYKASTLESGVPSRFSGSGSGTEFTLTISSLQPDDFATYYCQQSWLGGSFGQGTKLEIKR
B4: Antibody 3 scFv (scFv, V domains shown)
VH: B1 VH with E1Q, T35V, R65K, M70V, D84N, G102D, Y106H, G112R
VL: B1 VL with T34A, V46A, A94T, L106I
notes: Non-germlined; also called Ab 3; not shown: scFv linker, domain order and any purification tags
B5: Antibody 5 scFv (scFv, V domains shown)
VH: B1 VH with T35I, R65K, D84N, I107A, G112R, T117S
VL: B1 VL with S9P, T34A, T85S, L106I
notes: Non-germlined; also called Ab 5; not shown: scFv linker, domain order and any purification tags
B6: Antibody 2 scFv (scFv, V domains shown)
VH: B1 VH
VL: B1 VL
notes: Non-germlined; also called Ab 2; not shown: scFv linker, domain order and any purification tags
B7: Antibody 4 scFv (scFv, V domains shown)
VH: B1 VH with I29V, R65K, D84N, I107A, G112R, T117S
VL: B1 VL with T34A, T85S
notes: Non-germlined; also called Ab 4; not shown: scFv linker, domain order and any purification tags
B8: Antibody 14 IgG (antibody, V domains shown)
VH: EVQLVQSGGGLIQPGGSLRLSCAASGFTISSNYMIWVRQAPGKGLEWVSDLYYYAGDTYYADSVKGRFTMSRDISKNTVYLQMNSLRAEDTGVYYCARWADDHNYPHIDVWGRGTLVTVSS
VL: B1 VL with T34A, Q89A, Q90A, S91H, S93A, L106I
B9: Antibody 16 IgG (antibody, V domains shown)
VH: B1 VH with T35I, R65K, D84N, G102D, Y104P, Y105P, V109L, G112R
VL: B3 VL with Q3V, K42R, E70D, D81E
B10: Antibody 8 IgG (antibody, V domains shown)
VH: B1 VH with T35I, R65K, D84N, G102D, Y104P, Y105R, V109H, G112R
VL: B3 VL with Q3V, K42R, E70D, D81E
B11: Antibody 23 IgG (antibody, V domains shown)
VH: B1 VH with T35I, R65K, D84N, G102D, Y104A, Y105P, Y106W, I107V, V109L, G112R
VL: B3 VL with Q3V, K42R, E70D, D81E
B12: Antibody 19 IgG (antibody, V domains shown)
VH: B1 VH with T35I, R65K, D84N, G102D, Y104P, Y105S, Y106H, I107L, V109I, G112R
VL: B3 VL with Q3V, K42R, E70D, D81E

What follows are binders tested against T1, HIS FLAG tagged human IL-6 (human, UniProt P05231 30-212) (assay: HTRF antibody-ligand competition; competitor biotinylated CAN022D10 IgG; protocol modified for IgG (footnote)).
T1 construct: In house; also called HIS FLAG IL-6; HIS/FLAG IL-6
T1 sequence (P05231 other isoform, or with tags, fused parts or gaps): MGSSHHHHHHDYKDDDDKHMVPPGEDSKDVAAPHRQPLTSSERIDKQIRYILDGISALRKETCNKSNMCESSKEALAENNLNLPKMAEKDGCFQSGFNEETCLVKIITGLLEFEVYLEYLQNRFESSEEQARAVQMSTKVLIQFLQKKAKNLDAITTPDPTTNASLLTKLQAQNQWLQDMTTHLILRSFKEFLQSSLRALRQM
Method: (§1) Crude scFv preparations from a representative number of individual clones for the round 3 and round 4 outputs were screened for their inhibitory activity in a CAN022D10 IgG-IL-6 HTRF® binding assay. In this assay, binding of biotinyated antibody and FLAG-tagged IL-6 was detected using cryptate labelled anti-FLAG monoclonal antibody and streptavidin XL^{ent!}™. The detailed assay method is provided in the Materials and Methods section.
(§2) The IC₅₀ value for each scFv was then calculated from data obtained by a testing dilution series of the purified sample in the HTRF antibody-ligand biochemical assay and TF-1 proliferation assay.

Row | IC50 [pM] | Binder
1 | 36 | B1
2 | 43 | B2

These binders were tested against T2, Mature human IL-6 (human, UniProt P05231 30-212) (assay: cell-based or functional assay).
T2 sequence (P05231 30-212): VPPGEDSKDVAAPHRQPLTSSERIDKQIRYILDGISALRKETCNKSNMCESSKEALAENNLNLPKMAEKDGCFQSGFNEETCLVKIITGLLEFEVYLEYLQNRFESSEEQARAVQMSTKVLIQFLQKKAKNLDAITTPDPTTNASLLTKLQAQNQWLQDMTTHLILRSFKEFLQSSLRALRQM

Row | IC50, IL-6 induced TF-1 cell proliferation assay [pM] | Binder
3 | 71 | B3

Target: T2, Mature human IL-6
Assay: cell-based or functional assay
Remark: another data set of the same source

Row | IC50, TF-1 Proliferation Assay [pM] | Binder
4 | 16 | B1
5 | 7300 | B4
6 | 12400 | B5
7 | 9600 | B6
8 | 50 | B2
9 | 13400 | B7

Target: T2, Mature human IL-6
Assay: cell-based or functional assay
Remark: another data set of the same source

Row | IC50, TF-1 cell proliferation assay [pM] | Binder
10 | 31 | B8
11 | 4.9 | B9
12 | 48 | B10
13 | 20 | B11
14 | 68 | B12

Target: T2, Mature human IL-6
Assay: cell-based or functional assay
Remark: another data set of the same source

Row | IC50, endogenous IL-6 induced synovial fibroblast VEGF release assay [pM] | Binder
15 | 590 | B1
16 | 380 | B2
17 | 550 | B3

These binders were tested against T1, HIS FLAG tagged human IL-6 (assay: HTRF antibody-ligand competition; competitor biotinylated CAN022D10 IgG).
Method: as §1, §2

Row | IC50 [pM] | Binder
18 | 22 | B4
19 | 65 | B5
20 | 35 | B6
21 | 24 | B7
